Measurements taken from patent US20080039336A1.

Molecular target: TRPM4 of rat-derived INS-1 and RINm5F cells (endogenous) (rat) (UniProt Q9ESQ5)
Assay: cell-based or functional assay

Sequence of TRPM4 of rat-derived INS-1 and RINm5F cells (endogenous) (rat) (Q9ESQ5 whole entry): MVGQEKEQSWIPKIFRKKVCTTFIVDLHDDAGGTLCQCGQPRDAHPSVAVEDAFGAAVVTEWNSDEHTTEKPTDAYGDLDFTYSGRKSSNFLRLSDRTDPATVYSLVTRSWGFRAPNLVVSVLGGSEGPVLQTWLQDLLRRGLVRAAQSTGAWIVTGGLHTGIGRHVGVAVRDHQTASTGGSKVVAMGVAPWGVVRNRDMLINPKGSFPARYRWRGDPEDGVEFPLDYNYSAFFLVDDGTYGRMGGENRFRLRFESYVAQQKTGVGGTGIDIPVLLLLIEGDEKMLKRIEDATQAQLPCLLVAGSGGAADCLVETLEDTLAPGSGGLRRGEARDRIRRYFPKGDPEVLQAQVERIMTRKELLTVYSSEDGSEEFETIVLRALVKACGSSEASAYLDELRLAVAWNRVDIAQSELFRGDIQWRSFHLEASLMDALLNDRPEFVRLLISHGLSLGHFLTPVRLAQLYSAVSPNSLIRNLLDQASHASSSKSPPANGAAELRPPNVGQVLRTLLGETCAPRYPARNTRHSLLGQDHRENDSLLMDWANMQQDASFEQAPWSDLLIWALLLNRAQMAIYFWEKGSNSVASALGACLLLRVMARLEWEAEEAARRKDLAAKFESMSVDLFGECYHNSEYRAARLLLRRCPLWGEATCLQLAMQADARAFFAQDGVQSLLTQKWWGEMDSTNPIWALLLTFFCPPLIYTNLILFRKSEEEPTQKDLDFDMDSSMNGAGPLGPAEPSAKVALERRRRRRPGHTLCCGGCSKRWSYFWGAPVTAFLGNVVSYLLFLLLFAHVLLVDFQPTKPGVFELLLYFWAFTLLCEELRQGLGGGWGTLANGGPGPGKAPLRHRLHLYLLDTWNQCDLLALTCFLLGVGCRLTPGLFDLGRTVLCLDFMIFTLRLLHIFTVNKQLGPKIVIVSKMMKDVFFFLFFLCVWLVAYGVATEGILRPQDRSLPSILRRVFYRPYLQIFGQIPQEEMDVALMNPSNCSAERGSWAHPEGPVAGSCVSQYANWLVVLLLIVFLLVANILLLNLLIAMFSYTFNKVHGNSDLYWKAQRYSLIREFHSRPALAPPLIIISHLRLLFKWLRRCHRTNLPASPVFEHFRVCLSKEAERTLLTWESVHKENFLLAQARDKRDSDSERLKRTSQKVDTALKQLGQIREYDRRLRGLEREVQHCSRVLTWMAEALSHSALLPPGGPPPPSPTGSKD

ΔN-TRPM4 (from UniProt Q8TD43 178-1214)
insulin secretion of INS-1 cells at 25 mM glucose, fold over basal 4 mM, static incubation (mock-transfected control ~2.2-fold): 1.3 fold
